Experimental data from article doi:10.1101/2020.12.20.423708 (bioRxiv, 2020).

B1: CM30 recombinant plasma mAb (subject P3, Lin.2) (antibody, V domains shown)
VH: QVQLVESGGGLVKPGGSLRLSCAASGFTFSDYYMSWIRQAPGKGLEWVSSIDGSTSYTKYADSVKGRFTISRDNAKNSLYLQMNSLRAEDTAVYYCARVGPAVAGSPFDSWGQGTLVTVSS
VL: EIVLTQSPATLSLSPGERATLSCRASQSVSTYLAWYQQKPGQAPRLLIFDASNRATGIPARFSGSGSGTDFTLTISSLEPEDFAVYYCQQRSNWLFSFGPGTKVDIK
B2: CM31 recombinant plasma mAb (subject P3, Lin.3) (antibody, V domains shown)
VH: QVTLKESGPTLVKPTQTLTLTCTVSGFSLSTNGVGVAWVRQPPGKALEWLGLIYWDDAQRYGPSLKSRLTITKDTSKNQVVLTLTNMDPVDTGTYYCSHVWVNSTHRQIDYWGQGTLVTVSS
VL: QPVLTQPPSSSASPGESARLTCTLPSDFNVGSYNIYWYQKRPGSPPRYLLYYYSDSDKGQGSGVPSRFSGSKDASANTGILLISGLQSEDEADYYCMIWPINGVVFGGGTKLTVL
B3: CM32 recombinant plasma mAb (subject P3, Lin.4) (antibody, V domains shown)
VH: QVQLVQSGPEVKKPGASVKVSCQTSGYSFSDHYLHWVRQTPGQGFEWMGWIKPKSGATNSADNFQDRVTMTADASVNTAYMELSSLRPDDTAVYYCARGHRIPSAISDKYDFWGQGTLVTVSS
VL: QSVLTQPASVSASPGQSITISCTGTSSDVGGYDYVSWYQHHPDNAPKLLIFEVSNRPSGVSNRFSGSKSGNAASLTISGLLAEDEADYFCTSYSSGRTPYVFGTGTKVTVL
B4: CM29 recombinant plasma mAb (subject P3, Lin.1) (antibody, V domains shown)
VH: QVQLVESGGGVVQPGRSLRLSCAASGFTLSKYGMHWVRQAPDKGLEWVALMSYDGSIKYYGDSVKGRFTVSRDSSKNTLYLQMNNLRDDDTAVYFCARGAMAGNSSFDHWGQGTLVTVSS
VL: not shown

biological target: SARS-CoV-2 spike ectodomain, HexaPro variant (SARS-CoV-2, Wuhan-Hu-1 (MN908947), stabilised); assay: BLI

Going from B1 to B2, the Kd rises from 0.8 nM to 37.7 nM (47-fold). The first binds more tightly here.

B3 and B4 are within 1.5-fold of each other in Kd: 6 nM for the first, 6.6 nM for the second.
